Measurements reported in PMC3937304, “The Secreted Triose Phosphate Isomerase of Brugia malayi Is Required to Sustain Microfilaria Production In Vivo” (PLoS Pathogens, 2014).

Test system: O=C(CO)COP(=O)(O)O
Experiment: purified protein
Details: DHAP to G3P direction, 100 mM TEA-HCl pH 7.6, 1 mM EDTA, 1 mM NAD+, 5 mM disodium hydrogen arsenate, 25 °C, 0.16-10 mM DHAP

Substance | Km [µM]
recombinant Bm-TPI (Brugia malayi) | 1800
recombinant Ls-TPI (Litomosoides sigmodontis) | 1933
